Patent publication US20160304571

Tests used:
[1] = molecular target: Lys63-linked diubiquitin (enzymatically assembled), P0CG48
[2] = molecular target: Lys29-linked diubiquitin, P0CG48
[3] = molecular target: Lys6-linked diubiquitin, P0CG48
Lys6-linked diubiquitin, P0CG48, sequence (P0CG48 whole entry, looked up): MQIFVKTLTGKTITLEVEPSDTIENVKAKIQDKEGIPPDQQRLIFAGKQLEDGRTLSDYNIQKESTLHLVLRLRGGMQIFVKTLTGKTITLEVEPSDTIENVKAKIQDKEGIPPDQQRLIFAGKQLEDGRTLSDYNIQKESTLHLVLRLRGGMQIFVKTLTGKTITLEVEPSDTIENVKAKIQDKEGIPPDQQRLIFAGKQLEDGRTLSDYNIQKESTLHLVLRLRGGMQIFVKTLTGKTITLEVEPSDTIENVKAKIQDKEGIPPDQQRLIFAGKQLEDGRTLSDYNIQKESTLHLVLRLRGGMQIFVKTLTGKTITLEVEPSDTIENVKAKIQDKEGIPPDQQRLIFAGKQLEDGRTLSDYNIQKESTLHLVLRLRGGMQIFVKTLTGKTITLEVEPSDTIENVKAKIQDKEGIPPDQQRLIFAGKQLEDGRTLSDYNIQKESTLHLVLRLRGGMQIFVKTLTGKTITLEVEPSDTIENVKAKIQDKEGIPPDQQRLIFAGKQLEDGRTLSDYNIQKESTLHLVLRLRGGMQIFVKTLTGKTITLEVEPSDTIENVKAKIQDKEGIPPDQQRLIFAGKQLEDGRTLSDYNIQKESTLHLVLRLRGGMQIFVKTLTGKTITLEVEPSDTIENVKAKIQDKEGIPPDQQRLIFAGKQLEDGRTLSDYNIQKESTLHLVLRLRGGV

Lys29-linked diubiquitin, P0CG48, sequence (P0CG48 whole entry, looked up): as above
Lys63-linked diubiquitin (enzymatically assembled), P0CG48, sequence (P0CG48 whole entry, looked up): as above

B1: USP15 (protein)
chain: MAEGGAADLDTQRSDIATLLKTSLRKGDTWYLVDSRWFKQWKKYVGFDSWDKYQMGDQNVYPGPIDNSGLLKDGDAQSLKEHLIDELDYILLPTEGWNKLVSWYTLMEGQEPIARKVVEQGMFVKHCKVEVYLTELKLCENGNMNNVVTRRFSKADTIDTIEKEIRKIFSIPDEKETRLWNKYMSNTFEPLNKPDSTIQDAGLYQGQVLVIEQKNEDGTWPRGPSTPKSPGASNFSTLPKISPSSLSNNYNNMNNRNVKNSNYCLPSYTAYKNYDYSEPGRNNEQPGLCGLSNLGNTCFMNSAIQCLSNTPPLTEYFLNDKYQEELNFDNPLGMRGEIAKSYAELIKQMWSGKFSYVTPRAFKTQVGRFAPQFSGYQQQDCQELLAFLLDGLHEDLNRIRKKPYIQLKDADGRPDKVVAEEAWENHLKRNDSIIVDIFHGLFKSTLVCPECAKISVTFDPFCYLTLPLPMKKERTLEVYLVRMDPLTKPMQYKVVVPKIGNILDLCTALSALSGIPADKMIVTDIYNHRFHRIFAMDENLSSIMERDDIYVFEININRTEDTEHVIIPVCLREKFRHSSYTHHTGSSLFGQPFLMAVPRNNTEDKLYNLLLLRMCRYVKISTETEETEGSLHCCKDQNINGNGPNGIHEEGSPSEMETDEPDDESSQDQELPSENENSQSEDSVGGDNDSENGLCTEDTCKGQLTGHKKRLFTFQFNNLGNTDINYIKDDTRHIRFDDRQLRLDERSFLALDWDPDLKKRYFDENAAEDFEKHESVEYKPPKKPFVKLKDCIELFTTKEKLGAEDPWYCPNCKEHQQATKKLDLWSLPPVLVVHLKRFSYSRYMRDKLDTLVDFPINDLDMSEFLINPNAGPCRYNLIAVSNHYGGMGGGHYTAFAKNKDDGKWYYFDDSSVSTASEDQIVSKAAYVLFYQRQDTFSGTGFFPLDRETKGASAATGIPLESDEDSNDNDNDIENENCMHTN
For B1, the “cleavage in in vitro deubiquitinase assay (SDS-PAGE)” value (“cleavage” for short) [1] was “disassembled this chain type as efficiently as K63-linked chains”, the “cleavage” value [2] was “appreciably higher resistance to hydrolysis by USP2, USP15 and USP21 than K6- and K63-linked ubiquitin” and the “cleavage” value [3] was “disassembled this chain type as efficiently as K63-linked chains”.
